Measured values: patent US20050010967A1, “SK3-1B GFP transgenic mouse model for spinocerebellar ataxia and hyperexcitable behavior” (The Regents of the University of California, priority 2003, published 2005)

Tests used:
[1] = target: T1, SK2 channels in Jurkat T lymphocytes (Homo sapiens, UniProt Q9H2S1); experiment: Whole cell patch clamp of endogenous SK2 current in Jurkat T lymphocytes; format: cell-based
T1 construct: The native SK2 current was suppressed by SK3-1B; endogenous in cells; host or cells: Jurkat T lymphocytes (human)
Source text: (§1) Electrophysiology. PC12 and Jurkat T cells were studied in the whole cell configuration of the patch clamp technique with a holding potential of −80 mV. We determined SK and Kv current amplitude in untransfected cells or in cells transfected with SK3-1B-GFP, SK3-1BIRES-GFP or control constructs (GFP vector alone, GFP-Kv1.7). […] Brightly GFP-positive cells were identified under a fluorescence microscope to allow the analysis of cells expressing high levels of the channel constructs for electrophysiological studies. Control constructs were expressed at equivalently high levels as assessed by the intensity of the GFP signal.
(§2) To activate SK channels, the pipette solution contained (in mM): 145 K^+ aspartate, 2 MgCl2, 10 HEPES, 10 K2EGTA, and 8.5 CaCl2 (1 μM free Ca^2+), pH 7.2, 290-310 mOsm. […] The amplitude of the KV current was measured as the maximum current at 30 mV in 160 Na^+ aspartate. […]
(§3) SK3-1B suppresses other SK channels in a dominant-inhibitory manner. The inventors next determined whether SK3-1B could suppress SK2 channels. […] Using the electrophysiological protocol described above for PC12 cells, SK2 and Kv1.3 currents were measured in Jurkat cells. The inward SK2 current, detected at potentials more negative than −40 mV, was blocked by Lei-Dab (FIG. 5a), a highly specific SK2 peptide inhibitor. […]

[2] = target: T2, Kv1.3 channels in Jurkat T lymphocytes (Homo sapiens, UniProt P22001); experiment: Whole cell patch clamp of endogenous Kv1.3 current in Jurkat T lymphocytes; format: cell-based
T2 construct: they express SK2 channels and no other SK channels, along with voltage-gated Kv1.3 channels; endogenous in cells; host or cells: Jurkat T lymphocytes (human)
Source text: as §1, §2, §3

[3] = target: T3, endogenous SK3 current in PC12 cells (Rattus norvegicus, UniProt P70605); experiment: Whole cell patch clamp of endogenous SK (SK3) current in PC12 cells; format: cell-based; conditions: transfected PC12 cells, 48 h post-transfection; untransfected 6.24±1.57 nS
T3 construct: these cells natively express SK3 currents; endogenous in cells; host or cells: PC12 (rat pheochromocytoma)
Source text: as §1, §2

[4] = tested on: endogenous Kv current in PC12 cells; experiment: Whole cell patch clamp of endogenous Kv current in PC12 cells; format: cell-based, rat; conditions: transfected PC12 cells; 160 mM Na+ aspartate external; untransfected 707.94±147.7 pA
Source text: as §1, §2

native SK3 in PC12 cells = experiment: Immunolabeling and confocal microscopy of native SK3 localization in PC12 cells; format: cell-based, rat; conditions: transfected PC12 cells; untransfected 1.72±0.08
Method: Immunostaining. Following washing with Dulbecco's phosphate buffered saline (DPBS), cells were fixed with 4% paraformaldehyde for 20 min and washed 2× with DPBS. Permeabilization and blocking was done with 0.2% Triton-X-100 in 10% normal goat serum, followed by a wash with DPBS. Permeabilized cells were incubated with rabbit anti-SK3 antibody (Alomone Labs, Jerusalem, Israel) in a carrier solution containing 1% normal goat serum and 0.2 % sodium azide for 4 h at 4° C. Cells were subsequently washed and incubated with 1 μg/ml Alexa-Fluor 594 (referred to as Alexa-red)-conjugated goat-anti-rabbit-IgG (Molecular Probes) for 1 h at room temperature. […] As an additional test of antibody specificity, the anti-SK3 antibody was shown not to react with SK3-1B protein, an isoform that lacks the SK3 N-terminal epitope detected by the antibody (data not shown). […]
Confocal microscopy. […] The Scion image 4.0.2 program (Scion Corporation, Frederick, Md., USA) was used to determine the pixel intensity of fluorescence that tagged presumptive intracellular and membrane SK3 protein. Three axes were drawn through each stained cell and pixel intensities were measured along each of these axes. […] The average ratio of presumptive membrane to intracellular fluorescence was estimated from these intensity histograms. The expression level of each transfected construct was quantitated as mean pixel intensity. […]

[5] = 100 nM Lei-Dab, untransfected Jurkat T lymphocytes
[6] = transfected Jurkat T lymphocytes, n=4

T3 sequence (P70605 whole entry): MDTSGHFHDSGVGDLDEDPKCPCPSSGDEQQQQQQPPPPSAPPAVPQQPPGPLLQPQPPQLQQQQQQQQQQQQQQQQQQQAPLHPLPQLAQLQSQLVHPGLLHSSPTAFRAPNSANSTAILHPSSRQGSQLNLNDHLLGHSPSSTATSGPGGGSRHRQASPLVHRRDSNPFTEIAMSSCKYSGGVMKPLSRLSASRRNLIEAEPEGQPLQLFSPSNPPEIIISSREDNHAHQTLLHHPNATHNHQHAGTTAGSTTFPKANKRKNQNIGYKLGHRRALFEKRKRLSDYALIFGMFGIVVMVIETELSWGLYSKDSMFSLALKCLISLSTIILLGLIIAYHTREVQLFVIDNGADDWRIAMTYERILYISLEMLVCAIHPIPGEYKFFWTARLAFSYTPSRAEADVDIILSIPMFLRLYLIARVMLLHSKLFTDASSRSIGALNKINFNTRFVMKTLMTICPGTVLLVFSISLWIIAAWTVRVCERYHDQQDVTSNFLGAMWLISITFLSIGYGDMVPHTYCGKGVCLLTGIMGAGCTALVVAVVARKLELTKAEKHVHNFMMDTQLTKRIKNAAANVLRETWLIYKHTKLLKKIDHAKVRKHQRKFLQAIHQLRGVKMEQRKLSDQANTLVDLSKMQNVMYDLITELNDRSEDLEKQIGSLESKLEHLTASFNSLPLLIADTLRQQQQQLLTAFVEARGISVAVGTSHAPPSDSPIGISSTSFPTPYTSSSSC
T2 sequence (P22001 whole entry): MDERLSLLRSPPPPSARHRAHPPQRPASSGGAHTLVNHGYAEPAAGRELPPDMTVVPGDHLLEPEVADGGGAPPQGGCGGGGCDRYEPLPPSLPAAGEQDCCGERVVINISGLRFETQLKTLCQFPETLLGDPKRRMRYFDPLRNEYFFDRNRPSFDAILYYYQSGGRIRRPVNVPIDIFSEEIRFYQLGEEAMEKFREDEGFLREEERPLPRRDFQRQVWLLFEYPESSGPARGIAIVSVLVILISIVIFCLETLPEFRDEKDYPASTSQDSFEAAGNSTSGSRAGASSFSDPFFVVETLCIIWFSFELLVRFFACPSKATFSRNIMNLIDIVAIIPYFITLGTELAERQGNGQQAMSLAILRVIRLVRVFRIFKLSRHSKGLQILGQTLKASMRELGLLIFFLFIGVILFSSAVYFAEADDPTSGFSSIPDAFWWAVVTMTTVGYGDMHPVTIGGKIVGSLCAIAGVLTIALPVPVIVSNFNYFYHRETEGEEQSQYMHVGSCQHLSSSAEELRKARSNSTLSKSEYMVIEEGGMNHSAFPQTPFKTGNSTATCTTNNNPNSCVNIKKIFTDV
T1 sequence (Q9H2S1 whole entry): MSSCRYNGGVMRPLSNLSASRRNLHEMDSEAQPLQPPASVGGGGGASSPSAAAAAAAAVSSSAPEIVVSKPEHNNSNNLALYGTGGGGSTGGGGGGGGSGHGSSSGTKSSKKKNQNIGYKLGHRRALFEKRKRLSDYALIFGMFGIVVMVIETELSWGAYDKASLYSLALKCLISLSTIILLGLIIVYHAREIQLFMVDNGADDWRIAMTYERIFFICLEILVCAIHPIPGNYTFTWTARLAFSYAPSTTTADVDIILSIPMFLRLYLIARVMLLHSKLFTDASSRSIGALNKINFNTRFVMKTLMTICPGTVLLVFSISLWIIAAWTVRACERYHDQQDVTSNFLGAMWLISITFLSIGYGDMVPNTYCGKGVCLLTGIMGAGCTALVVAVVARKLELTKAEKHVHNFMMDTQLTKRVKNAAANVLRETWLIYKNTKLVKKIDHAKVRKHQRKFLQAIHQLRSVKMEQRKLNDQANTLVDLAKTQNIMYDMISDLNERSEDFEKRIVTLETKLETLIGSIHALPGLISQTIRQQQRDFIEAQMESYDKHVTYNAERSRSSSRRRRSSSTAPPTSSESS
Sequence of native SK3 in PC12 cells (P70605 whole entry): as the sequence (P70605 whole entry) above

| Molecule | Effect on inward SK2 current [1, 5] | Effect on Kv1.3 current [2, 5] | SK currents (mean±SEM), slope conductance at −80 mV [3] | SK2 current in transfected Jurkat T lymphocytes [1, 6] | Kv currents (mean±SEM), maximum current at 30 mV [4] | Kv1.3 current in transfected Jurkat T lymphocytes [2, 6] | Ratio of presumptive membrane to intracellular SK3 fluorescence (mean±SEM) (native SK3 in PC12 cells) |
| --- | --- | --- | --- | --- | --- | --- | --- |
| Lei-Dab [reference compound] | blocked | unaffected | – | – | – | – | – |
| SK3-1B-GFP: SK3-1B coding region inserted in-frame upstream to GFP in pEGFP-N1 expression vector; GFP-tagged truncated SK3 splice variant (protein, left off: large carriers, SK3-1B coding region inserted in-frame upstream to GFP in pEGFP-N1 expression vector; GFP-tagged truncated SK3 splice variant) MFSLALKCLISLSTIILLGLIIAYHTREVQLFVIDNGADDWRIAMTYERILYISLEMLVCAIHPIPGEYKFFWTARLAFSYTPSRAEADVDIILSIPMFLRLYLIARVMLLHSKLFTDASSRSIGALNKINFNTRFVMKTLMTICPGTVLLVFSISLWIIAAWTVRVCERYHDQQDVTSNFLGAMWLISITFLSIGYGDMVPHTYCGKGVCLLTGIMGAGCTALVVAVVARKLELTKAEKHVHNFMMDTQLTKRIKNAAANVLRETWLIYKHTKLLKKIDHAKVRKHQRKFLQAIHQLRSVKMEQRKLSDQANTLVDLSKMQNVMYDLITELNDRSEDLEKQIGSLESKLEHLTASFNSLPLLIADTLRQQQQQLLSAIIEARGVSVAVGTTHTPISDSPIGVSSTSFPTPYTSSSSC | – | – | 0.68±0.08 nS | no SK2 current is observed | 475.96±61.78 pA | resembles that in untransfected cells | 1.1±0.09 |
| SK3-1B-IRES-GFP: Untagged SK3-1B in bicistronic pIRES2-EGFP vector with GFP driven by an internal ribosome entry site (protein) MFSLALKCLISLSTIILLGLIIAYHTREVQLFVIDNGADDWRIAMTYERILYISLEMLVCAIHPIPGEYKFFWTARLAFSYTPSRAEADVDIILSIPMFLRLYLIARVMLLHSKLFTDASSRSIGALNKINFNTRFVMKTLMTICPGTVLLVFSISLWIIAAWTVRVCERYHDQQDVTSNFLGAMWLISITFLSIGYGDMVPHTYCGKGVCLLTGIMGAGCTALVVAVVARKLELTKAEKHVHNFMMDTQLTKRIKNAAANVLRETWLIYKHTKLLKKIDHAKVRKHQRKFLQAIHQLRSVKMEQRKLSDQANTLVDLSKMQNVMYDLITELNDRSEDLEKQIGSLESKLEHLTASFNSLPLLIADTLRQQQQQLLSAIIEARGVSVAVGTTHTPISDSPIGVSSTSFPTPYTSSSSC | – | – | 1.1±0.03 nS | – | 560.37±75.9 pA | – | – |
